From publication PMC7295030, “Aggregation pathways of human γ D crystallin induced by metal ions revealed by time dependent methods” (PeerJ, 2020)

Target: the molecule itself
Assay: dynamic light scattering; HγD 50 µM with 1.5 equivalents of CuSO4, 10 mM ammonium acetate pH 7.2, 50 mM NaCl, 37 °C, measured every 1.6 min during 12 h

B1: Human γD crystallin (natural protein)
chain: GKITLYEDRGFQGRHYECSSDHPNLQPYLSRCNSARVDSGCWMLYEQPNYSGLQYFLRRGDYADHQQWMGLSDSVRSCRLIPHSGSHRIRLYEREDYRGQMIEFTEDCSCLQDRFRFNEIHSLNVLEGSWVLYELSNYRGRQYLLMPGDYRRYQDWGATNARVGSLRRVIDFS
notes: Human γD crystallin (HγD), UniProt P07320; Only the vector pET16b is named; For NMR the protein was 15N-labelled (1H-15N HSQC); also called HγD; human gamma D crystallin; source: E. coli BL21-RIL (plasmid pET16b-HγD), purified (Q-Sepharose, Sephadex 200)
- binding result: binds
